Two molecules from paper PMC9584410, “Structure of Klebsiella pneumoniae adenosine monophosphate nucleosidase” (PLoS ONE, 2022) can be followed below.

As a reminder, the stoichiometry N is the number of molecules, sites or subunits per partner or assembly. By Km is commonly meant the substrate concentration at which the rate is half of its maximum.

Data set [1] deals with Klebsiella pneumoniae adenosine monophosphate nucleosidase (Klebsiella pneumoniae). The data set is described as follows: cryo-EM structure; purified KpAmn vitrified on a C-flat grid (Vitrobot, 4°C, >90% humidity), Titan Krios 300 kV; apo; D3 symmetry confirmed by ab initio models and enforced in refinement.
Substrate in the data set “purified protein”: Nc1ncnc2c1ncn2[C@@H]1O[C@H](COP(=O)(O)O)[C@@H](O)[C@H]1O
The data set is described as follows: purified protein. It is filed as biochemical, Klebsiella pneumoniae. The note with it: 25 °C, 20 mM HEPES pH 7.5, 100 mM NaCl, 1 mM MnCl2, no ATP activator listed.

The molecule “Klebsiella pneumoniae adenosine monophosphate nucleosidase (enzyme)” showed a stoichiometry N in data set [1] of 6.

B1: KpAmn (K. pneumoniae adenosine monophosphate nucleosidase) (Klebsiella pneumoniae) (protein)
chain: MNIKAASLTPEQALAELEARYEASVTALRKAIGDYIDHNTLPDTEARAEGLFVYPQLSVSWDGADHKALKTRAWGRFTHAGCYTTTITNPKLFRNYLLEQLTLLYQDYGAHISVELSQHEIPYPYVIDGSTLTLDRSMSAGLTRYFPTTELSQIGDETADGLFHPTEFYPLSHFDARRVDFSLARLRHYTGTPAEHFQPYVLFTNYTRYVDEFVSWGCSQILDPDSPYIALSCAGGIWITAETEAPEQAISDLAWKKHQMPAWHLITHDGKGITLINIGVGPANAKTICDHLAVLRPDVWLMIGHCGGLRESQAIGDYVLAHAYLRDDHVLDAVLPPDIPIPSIAEVQRALYDATKQVSGMPGEEVKQRLRTGTVVTTDDRNWELRYSASALRFNLSRAVAIDMESATIAAQGYRFRVPYGTLLCVSDKPLHGEIKLPGQANRFYEGAISEHLQIGIRAIDLLRAEGDHMHSRKLRTFNEPPFR
notes: expressed in E. coli BL21(DE3) R3 Rosetta; homohexamer, D3 symmetry; active site from two chains
Take B1: the Km in “purified protein” turned out to be 390 µM.
